# The nanobody polyreactivity screen of Harvey et al. (2022)
# Experiment: yeast display, Sf9 membrane polyspecificity reagent, FACS + sequencing; frameworks hold sequencing errors
# Procedure, shortened: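 Synthetic nanobody libraries on Saccharomyces cerevisiae BJ5465 were galactose-induced for 36–48 hours, stained 1 hour at 4 °C with 10% biotinylated, detergent-solubilized Sf9 membrane reagent and enriched on streptavidin microbeads. FACS then separated cells into low and high (top ~1%) gates by anti-HA (expression) and streptavidin (reagent binding) fluorescence. Genes were colony-PCR amplified, MiSeq 2 × 250 sequenced and CDR-length filtered. A clone's polyreactivity label is that of its gate of origin.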
row,Sequence,polyreactivity (PSR sort gate)
1,QVQLVESGGGLVQAGGSLRLSCAASGRTFRRYTMGWYRQAPGKVRELVAAITTSGGSTYYADSVKGRFTISRDNAKNTVYLQMNRLKPEDTAVYYCAATRRYSGDYWGQGTQVTVSS,high polyreactivity
2,QVQLVESGGGLVQAGGSLRLSCAASGRTFRRYVMGWYRQAPGKERELVAAISYSGATTYYADSVKGRFTISRDNAKNTVYLQMNSLKPEDTAVYYCAATAPGDRYFWGQGTQVTVSS,high polyreactivity
3,QVQLVESGGGLVQAGGSLRLSCAASGRTFRSNAMGGYRQAPGKERELVAAITYSGDRTYYADSVKGRFTISRDNAKNTVYLQMNSLKPEDTAVYDCNKYSRQYTYGYWGQGTQVTVSS,high polyreactivity
4,QVQLVESGGGLVQAGGSLRLSCAASGRTFRSYAMGWYRQAPGKEREFVAAISRSGASTRYADSVKGRFTISRDNAKNTVYLQMNSLKPEDTAVYYCAARYYPWKVNRFSYWYDYWGQGTQVTVSS,high polyreactivity
5,QVQLVESGGGLVQAGGSLRLSCAASGRTFRSYAMGWYRQAPGKERELVAAISYGGGRTFYADSVKGRFTISRDNAKNTVYLQMNSLKPEDTAVYYCNAAFPRSYRFDYWGQGTKVTVSS,high polyreactivity
6,QVQLVESGGGLVQAGGSLRLSCAASGRTFRSYAMGWYRQAPGKERELVAAITWGGGRTYYADSVKGRFTISRDNAKNTVYLQMNSLKPEDTAVYYCATRVKFSTSYWLYYWGQGTQVTVSS,high polyreactivity
7,QVQLVESGGGLVQAGGSLRLSCAASGRTFRTNAMGWYRQAPGKERELVAAIRASTGSTYYADSVKGRFTISRDNAKNTVYLQMNSLKPEDTAVYYCAATTQGVRYGYWGQGTQVTVSA,high polyreactivity
8,QVQLVESGGGLVQAGGSLRLSCAASGRTFRTNAMGWYRQEPGKERELVASITWRGDSTYYADSVKGRFTISRDNAKNTVYLQMNRLKPEDTAVYYCAAGGFYWGYLWGRYDYWGQGTQVTVSS,high polyreactivity
9,QVQLVESGGGLVQAGGSLRLSCAASGRTFRTNDMGWYRQAPGKERELVARITRGGSTYADSVKGRFTISRDNAKNTVYLHMNSLKPEDTAVYYCAAVTKLSGIRYNYWGQGTQVTVSS,low polyreactivity
10,QVQLVESGGGLVQAGGSLRLSCAASGRTFRVNAMGWYRQAPGKERELVAAITSSGGNTYADSVKGRFTISRDNAKNTVYLQMNSLKPEDTAVYYCAAVSSTRGDYWGQGTQVTVSS,high polyreactivity
11,QVQLVESGGGLVQAGGSLRLSCAASGRTFRVYAMGWYRQAPGKEREFVAAISYSGGRTNYADSVKGRFTISRDNSKNTVYLQMNSLKPEDTAVYYCAARYSWAEGDYWGQGTQVTVSS,low polyreactivity
12,QVQLVESGGGLVQAGGSLRLSCAASGRTFRVYAMGWYRQAPGKEREFVAAITDSGGRTYYADSVKGRFTISRDNAKNTVYLQMNSLKPEDTAVYYCNAYQYYERYDTYLFRYDYWGQGTQVTVSS,low polyreactivity
13,QVQLVESGGGLVQAGGSLRLSCAASGRTFRVYAMGWYRQAPGKERELVAAIRSGGSTNYADSVKGRFTISRDNAKNTVYLQMNSLKPEDTAVYYCAAVYRNNRQGYQFDYWGQGTQVTVSS,high polyreactivity
14,QVQLVESGGGLVQAGGSLRLSCAASGRTFRVYAMGWYRQAPGKERELVAAISRSTGDTYYADSVKGRFTISRDNAKNSVYLLMNRLKPEDTAVYYCAADVPGGEGDYAYEYWGQGTQVTVSS,low polyreactivity
15,QVQLVESGGGLVQAGGSLRLSCAASGRTFRVYAMGWYRQAPGKERELVAAISWSGGTTYYADSVKGRFTISRDNAKNTVYLQMNSLKPEDSAVYYCARRSRGSSYNYWGQGTQVTVSS,high polyreactivity
16,QVQLVESGGGLVQAGGSLRLSCAASGRTFRVYAMGWYRQAPGKERELVAAITFNGGSTYYADSVKGRFTISRDNAKNTVYLQMNSLKPEDTAVYYCAAATRRSYDHVQMYYWGQGTQVTVSS,high polyreactivity
17,QVQLVESGGGLVQAGGSLRLSCAASGRTFRVYVMGWYRQAPGKERELVAAISKSGTSTYYADSVKGRFTISRDNAKNTVYLQMNSLKPEDTAVYYCAAALPGYGDYYYWGQGTQVTVSS,high polyreactivity
18,QVQLVESGGGLVQAGGSLRLSCAASGRTFRWNAIGWYRQAPGKERELVASISSGGRTNYADSVKVRFTISRDNEKNTVYLQMNSLKPEDTAVYYCAKRVSWPQLYDYWGQGTQVTVSS,high polyreactivity
19,QVQLVESGGGLVQAGGSLRLSCAASGRTFRWYAMGWYIQAPGKERELVAAITSGGSTYYADSVKGRFTISRDNAKNTVYLQMNSLKPEDTAVYYCNAVSTSGAFDYWGQGTQVTVSS,high polyreactivity
20,QVQLVESGGGLVQAGGSLRLSCAASGRTFRWYAMGWYRQAPGKERELLASITWSGGSTYYADSVKGRFTISRDNAKNTVYLQMNSLKPEDTAVYYCAAVGRQSNYYVDYDYWGQGTQVTVSS,high polyreactivity
21,QVQLVESGGGLVQAGGSLRLSCAASGRTFRWYAMGWYRQAPGKERELVAAITGGGRTYYADSVKGSFTISRDYAKNTVYLQMNSLKPEDTAVYYCNKYPSSGNYINAYDYWGQGTQVTVSS,high polyreactivity
22,QVQLVESGGGLVQAGGSLRLSCAASGRTFRWYAMGWYRQAPGKERELVARITYSGGSTYYADSVKGRFTISRDNAKNTVYLQMNSLKPEDTAVYYCAAKRYTGSSSIYYYWGQGTQVTVSS,high polyreactivity

row,Sequence,polyreactivity (PSR sort gate)
1,QVQLVESGGGLVQAGGSLRLSCAASGRTFRWYAMGWYRQAPGKERELVATITSGGSTNYADSVKGRFTISRDNAKNTVYLQMNSLKPEDTAVYYCAAWSYAYYYRLRYVSHDYWGQGTQVTVSS,high polyreactivity
2,QVQLVESGGGLVQAGGSLRLSCAASGRTFRWYGMGWYRQAPGKEREFVAAISFRGGTTYYADSVKGRFTISRDNAKNTVYLQMNSLKPEDTAVYYCAARYGYYTSDYKYYYWGQGTQVTVSS,high polyreactivity
3,QVQLVESGGGLVQAGGSLRLSCAASGRTFRWYPMGWYRHAPGKEREFVARITWSGGRTYYADSVKGRFTISRDNAKNTVYLQMNSLKPEDTADYYCAAYFVGRYRLEYWGQGTQVTVSS,high polyreactivity
4,QVQLVESGGGLVQAGGSLRLSCAASGRTFRYHAMGWYRQAPGKERELVAGISWSGTSTYYADSVKGRFTISRDNAKNTVYLQMNSLKPEDTAVYYCNAVFRYRYDYWGQGTQVTVSS,high polyreactivity
5,QVQLVESGGGLVQAGGSLRLSCAASGRTFRYNALGWYRQAPGTERELVAAISRGTITNYAASVKGRFTISRDNAKNPVYFQLTSLKPEDTAVYYCNAGWGVVIRRYPTYHYWGQGTQVTVSS,high polyreactivity
6,QVQLVESGGGLVQAGGSLRLSCAASGRTFRYNAMGWYRQAPGKERELVAAISSGDRTNYADSVKGRFTISRDNAKNTVYLQMNSLKPEDTAVYYCAAPTDSYYEFDYWGQGTQVTVSS,low polyreactivity
7,QVQLVESGGGLVQAGGSLRLSCAASGRTFRYNAMGWYRQAPGKERELVAAITQSGGSTYYADSVKGRFTISRDNAKNTVYLQMNSLKPEDTAVYYCAKVRERINYDYWGQGTQVTVSS,low polyreactivity
8,QVQLVESGGGLVQAGGSLRLSCAASGRTFRYNAMGWYRQAPGKERELVASITSGGSTNYADSVKGRFTISRDNAKNTVYLQMNSLKPEDTAVYYCAADERRPYWLHSIGSGRPFDYWGQGTQVTVSS,low polyreactivity
9,QVQLVESGGGLVQAGGSLRLSCAASGRTFRYNRMGWYRQAPGKERELVAAITGGGSTYYADSVKGRFTISRDNAKNTVYLQMNSLKPEDTPVYYCAKRRWYRYDYWGQGTQVTVSS,high polyreactivity
10,QVQLVESGGGLVQAGGSLRLSCAASGRTFRYNTMGWYRQAPGKERELVARINWSGGSTYYADSVKGRFTISRDNAKNTVYLQMNSLKPEDTAVYYCAAVPILVYRWFQSYTGDYDYWGQGTQVTVSS,low polyreactivity
11,QVQLVESGGGLVQAGGSLRLSCAASGRTFRYNTMGWYRQAPGTERELVATITGSGGSTYYADSVKGRFTISRDNAKNTVYLQMNSLKPEDTAVYYCNALFRLRAYAEMDYWGQGTQVTVSS,high polyreactivity
12,QVQLVESGGGLVQAGGSLRLSCAASGRTFRYYAMGWYRPAPGKERELVATITGSGGSTYYADSVKGRFTISRDNAKNTVYLQMNSLKPEDTAVYDCNARKVRYPYRWYVYWGQGTQVTVSS,high polyreactivity
13,QVQLVESGGGLVQAGGSLRLSCAASGRTFRYYAMGWYRQAPAKERELVAAINWNGGRTYYADSVKGRFTISRDNAKNTVYLQMNSLKPEDTAVYYCAAYHYRSPVTGDYWGQGTQVTVSS,high polyreactivity
14,QVQLVESGGGLVQAGGSLRLSCAASGRTFRYYAMGWYRQAPGKERELVAAISWNGANTYYADSVKGRFTISRDNAKNTVYLQMNSLKPEDTAVYYCAATYYRWKGYDYWGQGTQVTVSS,high polyreactivity
15,QVQLVESGGGLVQAGGSLRLSCAASGRTFRYYAMGWYRQAPGKERELVAAITSNGGSTYYADSVKGRFTISRDNAKNTVYLQMNSLKPEDTAVYYCNALASRGKYGFDYWGQGTQVTVSS,high polyreactivity
16,QVQLVESGGGLVQAGGSLRLSCAASGRTFRYYAMGWYRQAPGKERELVAAITSSGDSTYYADSVKGRFTISRDNAKNTVYLQMNSLKPEDTAVYYCAAGQPLFYDAEYGYWGQGTQVNVSS,low polyreactivity
17,QVQLVESGGGLVQAGGSLRLSCAASGRTFRYYAMGWYRQAPGKERELVAAITSVGGTYYADSVKGRFTISRDNAKNTVYLQMNSLKPEDTAVYYCAVTSYKYRKYDYWGQGTQVTVSS,high polyreactivity
18,QVQLVESGGGLVQAGGSLRLSCAASGRTFRYYAMGWYRQAPGKESEFVARISSSGSSTYSADSVKGRFTISRDNAKNTVYLQMNSLKPEDTAVYYCAKTVLPYGGSNGLKWYYYWGQGTQVTVSS,high polyreactivity
19,QVQLVESGGGLVQAGGSLRLSCAASGRTFRYYAMGWYRQAPGTERELVATITGSGGSTYYADSVKGRFTISRDNAKNSVYLQMNSLKPEDTAVYYCNARKVRYPYRWYDYWGQGTQVTVSS,high polyreactivity
20,QVQLVESGGGLVQAGGSLRLSCAASGRTFRYYAMGWYRQPPGKERELVATITGSGGSTYYADSVKGRFTISRDNAKNTVYVQMNSLKPEDTAVYDCNARKVRYPYRWYDYWGQGTQVTVSS,high polyreactivity
21,QVQLVESGGGLVQAGGSLRLSCAASGRTFRYYAMGWYRQTPGKERELVATISKSGGSTYYADSVKGRFTISRDNAKNTVYLQMNSLKPEDTAVYYCATSKSYSAFDYWGQGTQVTVSS,high polyreactivity
